Changes are numbered by the printed parent chain.
Assays:
Conditions in all cases: EMSA: 10 mM Tris pH 7.5, 50 mM KCl, 2.5% glycerol, 0.05% Nonidet P-40, 1 ug poly(dI-dC), 5 fmol probe, 20 min RT; AFM buffer not in the material
[1] = target: T1, His-H-NS (Salmonella Typhimurium) (UniProt P0A1S2); assay: EMSA
T1 sequence: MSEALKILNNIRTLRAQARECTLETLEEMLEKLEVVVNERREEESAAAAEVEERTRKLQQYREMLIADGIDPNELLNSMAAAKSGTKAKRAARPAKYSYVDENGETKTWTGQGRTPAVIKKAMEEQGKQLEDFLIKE

[2] = target: T2, His-SsrB (unphosphorylated) (UniProt Q7CQM5); assay: EMSA
T2 sequence: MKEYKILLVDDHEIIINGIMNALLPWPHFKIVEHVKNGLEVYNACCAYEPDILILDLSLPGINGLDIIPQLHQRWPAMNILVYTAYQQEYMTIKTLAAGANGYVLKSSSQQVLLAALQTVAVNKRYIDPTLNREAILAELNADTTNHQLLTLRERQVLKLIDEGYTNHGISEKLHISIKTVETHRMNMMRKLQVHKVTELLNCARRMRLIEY

K179A His-SsrB K179A = target: T3, K179A His-SsrB K179A (UniProt Q7CQM5); assay: EMSA
T3 sequence: T2 sequence with K179A

[3] = target: His-SsrB (unphosphorylated);His-H-NS (Salmonella Typhimurium) (UniProt Q7CQM5+P0A1S2); assay: EMSA supershift

Question: Which binding [1] does the source give for “AATATTTTTCTCTTTCTGGATAATGGGCTATTTCAACCCACAGCAGTGCAACATCTGTCAGTACTTCTGGTGCCTTTATTTTATGGGGGCAGCTGTCAGATGTGCGATTAAAAAAAGTGGAGTTTCATCA (double strand) [csgD122]” here?
Answer: binds

Question: What about the binding [2] of the same sequence?
Answer: binds

Question: What about the binding (K179A His-SsrB K179A) of the same sequence?
Answer: no binding

Question: What about the binding [3] of the same sequence?
Answer: binds
